Bridges are numbered along the chain shown (N, C = ends). Where no end group is shown, it is not given here.
Key:
Test in all cases: cell-based or functional assay
GLP-1 receptor = GLP-1 receptor (UniProt P43220 24-463, limits assumed)
GIP receptor = biological target: T1, GIP receptor (UniProt P48546 22-466)
T1 sequence (looked up): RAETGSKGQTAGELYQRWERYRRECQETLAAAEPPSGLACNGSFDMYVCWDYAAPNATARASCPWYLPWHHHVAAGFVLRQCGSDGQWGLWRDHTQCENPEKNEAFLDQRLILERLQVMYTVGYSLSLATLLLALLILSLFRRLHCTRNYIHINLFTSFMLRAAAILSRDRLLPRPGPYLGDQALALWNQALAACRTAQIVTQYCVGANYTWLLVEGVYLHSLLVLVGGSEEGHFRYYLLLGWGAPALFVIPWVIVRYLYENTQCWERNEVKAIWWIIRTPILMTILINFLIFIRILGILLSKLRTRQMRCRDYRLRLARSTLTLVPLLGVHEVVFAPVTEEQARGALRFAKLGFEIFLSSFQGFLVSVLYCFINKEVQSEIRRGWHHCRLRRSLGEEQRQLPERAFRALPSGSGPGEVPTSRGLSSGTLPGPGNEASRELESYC

glucagon receptor = glucagon receptor (UniProt P47871 26-477, limits assumed)
Sequence of glucagon receptor (P47871 26-477 limits assumed): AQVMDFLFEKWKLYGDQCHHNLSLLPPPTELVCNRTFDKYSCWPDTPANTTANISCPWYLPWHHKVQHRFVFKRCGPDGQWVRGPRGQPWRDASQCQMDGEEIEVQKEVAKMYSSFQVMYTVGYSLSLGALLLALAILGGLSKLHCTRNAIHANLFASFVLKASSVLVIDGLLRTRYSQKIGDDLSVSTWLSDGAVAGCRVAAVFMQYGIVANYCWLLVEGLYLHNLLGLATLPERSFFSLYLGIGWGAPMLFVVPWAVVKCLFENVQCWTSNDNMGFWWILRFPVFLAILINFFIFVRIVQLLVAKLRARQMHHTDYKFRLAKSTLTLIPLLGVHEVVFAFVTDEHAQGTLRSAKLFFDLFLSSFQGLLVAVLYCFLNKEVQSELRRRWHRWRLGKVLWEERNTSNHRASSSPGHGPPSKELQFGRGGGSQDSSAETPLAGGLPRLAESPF

B1: mt-142 (peptide)
peptide: YAEGTFTSDYSIYMDEQAAKEFVNWLLAGGPSSGAPPPS-NH2
modifications: lactam 16-20; N-terminus assumed
SMILES: CC[C@H](C)[C@H](NC(=O)[C@H](CO)NC(=O)[C@H](Cc1ccc(O)cc1)NC(=O)[C@H](CC(=O)O)NC(=O)[C@H](CO)NC(=O)[C@@H](NC(=O)[C@H](Cc1ccccc1)NC(=O)[C@@H](NC(=O)CNC(=O)[C@H](CCC(=O)O)NC(=O)[C@H](C)NC(=O)[C@@H](N)Cc1ccc(O)cc1)[C@@H](C)O)[C@@H](C)O)C(=O)N[C@@H](Cc1ccc(O)cc1)C(=O)N[C@@H](CCSC)C(=O)N[C@@H](CC(=O)O)C(=O)N[C@H]1CCC(=O)NCCCC[C@@H](C(=O)N[C@@H](CCC(=O)O)C(=O)N[C@@H](Cc2ccccc2)C(=O)N[C@H](C(=O)N[C@@H](CC(N)=O)C(=O)N[C@@H](Cc2c[nH]c3ccccc23)C(=O)N[C@@H](CC(C)C)C(=O)N[C@@H](CC(C)C)C(=O)N[C@@H](C)C(=O)NCC(=O)NCC(=O)N2CCC[C@H]2C(=O)N[C@@H](CO)C(=O)N[C@@H](CO)C(=O)NCC(=O)N[C@@H](C)C(=O)N2CCC[C@H]2C(=O)N2CCC[C@H]2C(=O)N2CCC[C@H]2C(=O)N[C@@H](CO)C(N)=O)C(C)C)NC(=O)[C@H](C)NC(=O)[C@H](C)NC(=O)[C@H](CCC(N)=O)NC1=O
GLP-1 receptor
  EC50: 0.041 nM
  relative activity: 163%
GIP receptor
  EC50: 0.132 nM
  relative activity: 36.4%

B2: mt-146 (peptide)
peptide: YAQGTFISDYSKYLDEQAAKEFVNWLLAGGPSSGAPPPS-NH2
modifications: lactam 16-20; N-terminus assumed
SMILES: CC[C@H](C)[C@H](NC(=O)[C@H](Cc1ccccc1)NC(=O)[C@@H](NC(=O)CNC(=O)[C@H](CCC(N)=O)NC(=O)[C@H](C)NC(=O)[C@@H](N)Cc1ccc(O)cc1)[C@@H](C)O)C(=O)N[C@@H](CO)C(=O)N[C@@H](CC(=O)O)C(=O)N[C@@H](Cc1ccc(O)cc1)C(=O)N[C@@H](CO)C(=O)N[C@@H](CCCCN)C(=O)N[C@@H](Cc1ccc(O)cc1)C(=O)N[C@@H](CC(C)C)C(=O)N[C@@H](CC(=O)O)C(=O)N[C@H]1CCC(=O)NCCCC[C@@H](C(=O)N[C@@H](CCC(=O)O)C(=O)N[C@@H](Cc2ccccc2)C(=O)N[C@H](C(=O)N[C@@H](CC(N)=O)C(=O)N[C@@H](Cc2c[nH]c3ccccc23)C(=O)N[C@@H](CC(C)C)C(=O)N[C@@H](CC(C)C)C(=O)N[C@@H](C)C(=O)NCC(=O)NCC(=O)N2CCC[C@H]2C(=O)N[C@@H](CO)C(=O)N[C@@H](CO)C(=O)NCC(=O)N[C@@H](C)C(=O)N2CCC[C@H]2C(=O)N2CCC[C@H]2C(=O)N2CCC[C@H]2C(=O)N[C@@H](CO)C(N)=O)C(C)C)NC(=O)[C@H](C)NC(=O)[C@H](C)NC(=O)[C@H](CCC(N)=O)NC1=O
GLP-1 receptor
  EC50: 13.1 nM
GIP receptor
  EC50: 0.391 nM

B3: mt-66 (peptide)
peptide: HSQGTFTSDYSKYLDEIHQKEFIAWLLAQ-NH2
Glucagon receptor
  EC50: 2 nM
  relative activity: 13%
GLP-1 receptor
  EC50: 0.13 nM
  relative activity: 38.5%

B4: mt-155 (peptide)
peptide: YSQGTFTSDYSKYLDEQAAKEFVNWLLAGGPSSGAPPPS-NH2
modifications: lactam 12-16; N-terminus assumed
SMILES: CC(C)C[C@H](NC(=O)[C@H](CC(C)C)NC(=O)[C@H](Cc1c[nH]c2ccccc12)NC(=O)[C@H](CC(N)=O)NC(=O)[C@@H](NC(=O)[C@H](Cc1ccccc1)NC(=O)[C@H](CCC(=O)O)NC(=O)[C@H](CCCCN)NC(=O)[C@H](C)NC(=O)[C@H](C)NC(=O)[C@H](CCC(N)=O)NC(=O)[C@@H]1CCC(=O)NCCCC[C@H](NC(=O)[C@H](CO)NC(=O)[C@H](Cc2ccc(O)cc2)NC(=O)[C@H](CC(=O)O)NC(=O)[C@H](CO)NC(=O)[C@@H](NC(=O)[C@H](Cc2ccccc2)NC(=O)[C@@H](NC(=O)CNC(=O)[C@H](CCC(N)=O)NC(=O)[C@H](CO)NC(=O)[C@@H](N)Cc2ccc(O)cc2)[C@@H](C)O)[C@@H](C)O)C(=O)N[C@@H](Cc2ccc(O)cc2)C(=O)N[C@@H](CC(C)C)C(=O)N[C@@H](CC(=O)O)C(=O)N1)C(C)C)C(=O)N[C@@H](C)C(=O)NCC(=O)NCC(=O)N1CCC[C@H]1C(=O)N[C@@H](CO)C(=O)N[C@@H](CO)C(=O)NCC(=O)N[C@@H](C)C(=O)N1CCC[C@H]1C(=O)N1CCC[C@H]1C(=O)N1CCC[C@H]1C(=O)N[C@@H](CO)C(N)=O
GLP-1 receptor
  EC50: 0.025 nM
GIP receptor
  EC50: 0.665 nM

B5: mt-151 (peptide)
peptide: YSQGTFTSDYSKYLDEQAAKEFIAWLLAGGPSSGAPPPS-NH2
modifications: lactam 16-20; N-terminus assumed
SMILES: CC[C@H](C)[C@H](NC(=O)[C@H](Cc1ccccc1)NC(=O)[C@H](CCC(=O)O)NC(=O)[C@@H]1CCCCNC(=O)CC[C@H](NC(=O)[C@H](CC(=O)O)NC(=O)[C@H](CC(C)C)NC(=O)[C@H](Cc2ccc(O)cc2)NC(=O)[C@H](CCCCN)NC(=O)[C@H](CO)NC(=O)[C@H](Cc2ccc(O)cc2)NC(=O)[C@H](CC(=O)O)NC(=O)[C@H](CO)NC(=O)[C@@H](NC(=O)[C@H](Cc2ccccc2)NC(=O)[C@@H](NC(=O)CNC(=O)[C@H](CCC(N)=O)NC(=O)[C@H](CO)NC(=O)[C@@H](N)Cc2ccc(O)cc2)[C@@H](C)O)[C@@H](C)O)C(=O)N[C@@H](CCC(N)=O)C(=O)N[C@@H](C)C(=O)N[C@@H](C)C(=O)N1)C(=O)N[C@@H](C)C(=O)N[C@@H](Cc1c[nH]c2ccccc12)C(=O)N[C@@H](CC(C)C)C(=O)N[C@@H](CC(C)C)C(=O)N[C@@H](C)C(=O)NCC(=O)NCC(=O)N1CCC[C@H]1C(=O)N[C@@H](CO)C(=O)N[C@@H](CO)C(=O)NCC(=O)N[C@@H](C)C(=O)N1CCC[C@H]1C(=O)N1CCC[C@H]1C(=O)N1CCC[C@H]1C(=O)N[C@@H](CO)C(N)=O
GLP-1 receptor
  EC50: 0.126 nM
GIP receptor
  EC50: 0.852 nM

B6: mt-145 (peptide)
peptide: YAQGTFISDYSKYLDEQAAKEFVNWLLAGGPSSGAPPPS-NH2
modifications: lactam 16-20; N-terminus assumed
SMILES: CC[C@H](C)[C@H](NC(=O)[C@H](Cc1ccccc1)NC(=O)[C@@H](NC(=O)CNC(=O)[C@H](CCC(N)=O)NC(=O)[C@H](C)NC(=O)[C@@H](N)Cc1ccc(O)cc1)[C@@H](C)O)C(=O)N[C@@H](CO)C(=O)N[C@@H](CC(=O)O)C(=O)N[C@@H](Cc1ccc(O)cc1)C(=O)N[C@@H](CO)C(=O)N[C@@H](CCCCN)C(=O)N[C@@H](Cc1ccc(O)cc1)C(=O)N[C@@H](CC(C)C)C(=O)N[C@@H](CC(=O)O)C(=O)N[C@H]1CCC(=O)NCCCC[C@@H](C(=O)N[C@@H](CCC(=O)O)C(=O)N[C@@H](Cc2ccccc2)C(=O)N[C@H](C(=O)N[C@@H](CC(N)=O)C(=O)N[C@@H](Cc2c[nH]c3ccccc23)C(=O)N[C@@H](CC(C)C)C(=O)N[C@@H](CC(C)C)C(=O)N[C@@H](C)C(=O)NCC(=O)NCC(=O)N2CCC[C@H]2C(=O)N[C@@H](CO)C(=O)N[C@@H](CO)C(=O)NCC(=O)N[C@@H](C)C(=O)N2CCC[C@H]2C(=O)N2CCC[C@H]2C(=O)N2CCC[C@H]2C(=O)N[C@@H](CO)C(N)=O)C(C)C)NC(=O)[C@H](C)NC(=O)[C@H](C)NC(=O)[C@H](CCC(N)=O)NC1=O
GLP-1 receptor
  EC50: 9.94 nM
GIP receptor
  EC50: 1.09 nM
